Measurements: the Immune Epitope Database (IEDB)

Key:
HLA-A*23:01 = assay: IEDB peptide-MHC binding, purified MHC/competitive/radioactivity; filed as Kd, often an IC50 or EC50 that approximates it; ≥ and ≤ were set here for values at or beyond the usual limits of such assays; details: source organism: Dengue virus 4 Philippines/H241/1956
HLA-A*02:02 = assay: as above
HLA-A*02:03 = assay: as above
HLA-A*02:06 = assay: as above
HLA-A*26:01 = assay: as above; details: source organism: Dengue virus 3 Martinique/1243/1999
HLA-A*30:02 = assay: as above; details: source organism: Dengue virus 1 Brazil/97-11/1997
HLA-A*01:01 = assay: as above
HLA-A*02:01 = assay: IEDB peptide-MHC binding, purified MHC/direct/fluorescence; filed as Kd, often an IC50 or EC50 that approximates it; ≥ and ≤ were set here for values at or beyond the usual limits of such assays
HLA-A*69:01 = assay: as above
HLA-A*24:02 = assay: IEDB peptide-MHC binding, purified MHC/competitive/radioactivity; filed as Kd, often an IC50 or EC50 that approximates it; ≥ and ≤ were set here for values at or beyond the usual limits of such assays; details: source organism: HIV-1 M:B_ARV2/SF2
[1] = source organism: Vaccinia virus WR
[2] = source organism: Mammarenavirus machupoense
[3] = source organism: Dengue virus 2 Jamaica/1409/1983
[4] = source organism: Camelpox virus M-96
[5] = source organism: Salmonella enterica
[6] = source organism: SARS coronavirus Tor2

Sequence	Kd (HLA-A*02:02; [1])	Kd (HLA-A*02:03; [1])	Kd (HLA-A*02:06; [1])	further results
MWKQITNEL	–	–	–	Kd (HLA-A*23:01): 144 nM
AISAVYFKA	3.65 nM	525 nM	149 nM	–
GLSQFTHTV	–	–	–	Kd (HLA-A*02:02; [2]): 5.28 nM; Kd (HLA-A*02:03; [2]): 7.65 nM; Kd (HLA-A*02:06; [2]): 332 nM
ETLLLLGLM	–	–	–	Kd (HLA-A*26:01): 133 nM
RGDLPVWLSY	–	–	–	Kd (HLA-A*30:02): 4100 nM
IMECSRMLDT	5240 nM	7200 nM	≥ 69800 nM	–
ILEYLYIMRV	73.5 nM	83.2 nM	134 nM	–
KQYDSTDFKM	8.38 nM	3270 nM	107 nM	–
LAEAIFKLTY	–	–	–	Kd (HLA-A*01:01; [3]): 1510 nM
SVKYYGRST	6790 nM	1160 nM	19400 nM	–
TTNNLLEQL	122 nM	1420 nM	3040 nM	–
QIDNFSLGV	–	–	–	Kd (HLA-A*01:01; [3]): 661 nM
EVDSFSLGI	–	–	–	Kd (HLA-A*01:01; source organism: Dengue virus 1 Brazil/97-11/1997): 7390 nM
YLYNKYSFKL	0.109 nM	0.0349 nM	0.14 nM	–
VTEKDSPVNI	–	–	–	Kd (HLA-A*01:01; [3]): ≥ 40900 nM
TLNTLITLIL	150 nM	7.09 nM	826 nM	–
RLRQDTEDIV	134 nM	284 nM	7490 nM	–
NVDIIDLLL	461 nM	4090 nM	22.3 nM	–
LLSKNTFYL	–	–	–	Kd (HLA-A*02:01; [4]): 15.5 nM; Kd (HLA-A*69:01; [4]): 536 nM
RYLRDQQLL	–	–	–	Kd (HLA-A*24:02): 30 nM
AIDPRRIVA	–	–	–	Kd (HLA-A*02:01; [5]): ≥ 20000 nM; Kd (HLA-A*69:01; [5]): ≥ 20000 nM
AVSVYGAIT	11400 nM	9610 nM	14300 nM	–
IVVALSSLV	26.7 nM	3.85 nM	8.23 nM	–
ILSEKRKDTI	≥ 44000 nM	541 nM	≥ 69800 nM	–
FVFNGTSWFI	–	–	–	Kd (HLA-A*02:02; [6]): 1.01 nM; Kd (HLA-A*02:03; [6]): 2.15 nM; Kd (HLA-A*02:06; [6]): 0.439 nM
HTNHSDISM	8810 nM	4140 nM	1200 nM	–
SITEAELTGY	–	–	–	Kd (HLA-A*01:01; [3]): 391 nM
